Experimental data from US20120258121A1 (OMEROS, published 2012).
Substitutions are numbered along the chain they refer to.

Legend:
[1] = molecular target: T1, recombinant human FN14-Fc fusion protein (rhFN14-Fc; R&D Systems) (human, UniProt Q9NP84 28-79); assay: saturation binding of PECy5-labelled soluble antigen to FN14-specific DTLacO cells, flow cytometry
T1 construct: Bought reagent; Detected with PECy5-labeled anti-human IgG(Fc); also called soluble FN14; PECy5-labelled soluble antigen; not shown: Fc part of the bought fusion protein (detected with anti-human IgG(Fc))
T1 sequence: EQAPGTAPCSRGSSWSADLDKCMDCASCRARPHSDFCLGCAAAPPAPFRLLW

[2] = molecular target: T2, human FN14 on the cell surface (FN14-transfected cells or cancer cell lines intrinsically expressing FN14, … (human, UniProt Q9NP84 28-129)); assay: binding affinity; method not restated in Example 3 (saturation binding on FN14-expressing cells by the methods of Example 1)
T2 construct: The cells in the assays are human cancer lines or FN14-transfected cells (293F/FN14); also called TWEAKR; CD266
T2 sequence: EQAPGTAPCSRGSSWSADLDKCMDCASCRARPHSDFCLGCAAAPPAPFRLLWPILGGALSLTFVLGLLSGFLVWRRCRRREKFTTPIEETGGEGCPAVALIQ

[3] = molecular target: T2, human FN14 on the cell surface …; assay: saturation binding of recombinant antibody on target-expressing cells
Method: (§1) Saturation binding kinetics were determined by either staining FN14-specific DTLacO cells with various concentrations of fluorescent-labeled soluble antigen, or by staining FN14-transfected cells or cancer cell lines intrinsically expressing FN14 with various concentrations of the recombinant chimeric anti-FN14 mAbs.

[4] = molecular target: T1, recombinant human FN14-Fc fusion …; assay: saturation binding of soluble antigen to DTLacO[FS24] cells, flow cytometry
[5] = molecular target: T2, human FN14 on the cell surface …; assay: saturation binding of recombinant antibody on target-expressing cells (A375 melanoma)
Method: as §1

[6] = molecular target: T2, human FN14 on the cell surface …; assay: binding affinity; method not restated in Example 3 (saturation binding on FN14-expressing cells by the methods of Example 1); remark: listed apart in the source

B1: surface immunoglobulin of the FN14-specific DTLacO cell population FS17 (antibody, V domains shown)
VH: AVTLDESGGGLQTPGGALSLVCKASGFTFSSYDMAWVRQEPGKGLEWVAGIDDDGSGRRYAPAVKGRATISRDNGQSTLRLQLNNLRAEDTGTYYCTKCAYTGGCDYEGGYIDAWGHGTEVIVSS
VL: ALTQPASVSANPGETVKITCSGGGSSYYAGSYYYGWYQQKAPGSAPVTLIYYNNKRPSDIPSRFSGSLSGSTNTLTITGVRADDEAVYFCGSIDNSGAAFGAGTTLTVL
notes: Chicken surface IgM on DTLacO cells
Question: With B1 as the binder, how does the Kd [1] read?
Answer: 0.7 nM

B2: chimeric PS4 antibody (parent of the humanized PS4 versions) (antibody, human IgG1, lambda, V domains shown)
VH: B1 VH with A35F, T102S, G103S
VL: ALTQPASVSANPGETVKITCSGGGSSYYAGSYYYGWYQQKSPGSAPVTVIYYNNKRPSDIPSRFSGSLSGSTNTLTITGVRADDEAVYFCGSIDNSGAAFGAGTTLTVLG
notes: also called Chicken PS4; original chimeric antibody PS4
Question: B2 was tested. Which Kd [2] did it give?
Answer: 0.21 nM

B3: recombinant chimeric monoclonal antibody PS4B (chicken V regions, human IgG1 / lambda constant regions) (antibody, V domains shown)
VH: B1 VH with A35F, T102S, G103S
VL: B2 VL
Question: B3 was tested. Which Kd [3] did it give?
Answer: 0.35 nM

B4: recombinant chimeric monoclonal antibody PS4A (chicken V regions, human IgG1 / lambda constant regions) (antibody, V domains shown)
VH: B1 VH with A35F, T102S, G103S
VL: B2 VL with A6S, S41A, V49L
Question: With B4 as the binder, how does the Kd [3] read?
Answer: 0.21 nM

B5: recombinant chimeric monoclonal antibody FS10 (chicken V regions, human IgG1 / lambda constant regions) (antibody, V domains shown)
VH: B1 VH with T102S, G103S
VL: B2 VL with S41A, P46L, V49L, I93A
notes: expressed in 293F cells; also called mAb FS10
Question: B5 was tested. Which Kd [3] did it give?
Answer: 25 nM

B6: surface immunoglobulin of the FN14-specific DTLacO cell population FS10 (antibody, V domains shown)
VH: B1 VH with T102S, G103S
VL: B1 VL with P46L, I93A
notes: Chicken surface IgM on DTLacO (DT40-derived) cells
Question: For B6, which Kd [1] is on record?
Answer: 25 nM

B7: surface immunoglobulin of the FN14-specific DTLacO cell population FS24 (antibody, V domains shown)
VH: B1 VH with D53Y, A100G
VL: B1 VL with A6S
notes: Chicken surface IgM on DTLacO cells; also called DTLacO[FS24]
Question: For B7, which Kd [1] is on record?
Answer: 0.67 nM

Question: And the Kd [4]?
Answer: 0.44 nM

B8: recombinant chimeric monoclonal antibody FS24 (chicken V regions, human IgG1 / lambda constant regions) (antibody, V domains shown)
VH: B1 VH with D53Y, A100G
VL: B2 VL with A6S, S41A, V49L
notes: also called mAb FS24; Chicken FS24
Question: With B8 as the binder, how does the Kd [5] read?
Answer: 0.21 nM

Question: And the Kd [6]?
Answer: 0.26 nM

B9: recombinant chimeric monoclonal antibody FS17 (chicken V regions, human IgG1 / lambda constant regions) (antibody, V domains shown)
VH: B1 VH
VL: B2 VL with S41A, V49L
notes: also called mAb FS17
Question: How did the Kd [3] turn out when B9 was run?
Answer: 0.36 nM

B10: Humanized PS4: H.1/L.1 (antibody, human IgG1)
heavy: not shown
light: SYELTQPPSVSVSPGQTARITCSGGGSSYYAGSYYYGWYQQKPGQAPVTVIYYNNKRPSGIPERFSGSLSGSTNTLTISGVQAEDEADYYCGSIDNSGAAFGGGTKLTVLGQPKAAPSVTLFPPSSEELQANKATLVCLISDFYPGAVTVAWKADSSPVKAGVETTTPSKQSNNKYAASSYLSLTPEQWKSHRSYSCQVTHEGSTVEKTVAPTECS
notes: also called first humanized version of PS4
Question: B10 was tested. Which Kd [2] did it give?
Answer: 15 nM

B11: Humanized PS4: H.1/L.9 (antibody, human IgG1, lambda)
heavy: not shown
light: ALTQPPSVSVSPGQTARITCSGGGSSYYAGSYYYGWYQQKPGQAPVTVIYYNNKRPSGIPERFSGSLSGSTNTLTISGVQAEDEADYYCGSIDNSGAAFGGGTKLTVLGQPKAAPSVTLFPPSSEELQANKATLVCLISDFYPGAVTVAWKADSSPVKAGVETTTPSKQSNNKYAASSYLSLTPEQWKSHRSYSCQVTHEGSTVEKTVAPTECS
notes: also called humanized PS4 antibody H.1/L.9
Question: B11 was tested. Which Kd [2] did it give?
Answer: 0.24 nM

B12: Humanized FS24 (antibody, human IgG1, lambda, V domains shown)
VH: EVQLVESGGGLVQPGGSLRLSCAASGFTFSSYDMAWVRQAPGKGLEWVAGIDYDGSGRRYAPAVKGRATISRDNSKNTLYLQMNSLRAEDTAVYYCTKCGYTGGCDYEGGYIDAWGQGTLVTVSS
VL: ELTQPPSVSVSPGQTARITCSGGGSSYYAGSYYYGWYQQKPGQAPVTLIYYNNKRPSGIPERFSGSLSGSTNTLTISGVQAEDEADYYCGSIDNSGAAFGGGTKLTVLG
notes: also called hFS24; humanized FS24 antibody
Question: For B12, which Kd [6] is on record?
Answer: 0.21 nM
